Measurements as given in the domain aggregation screens of Martell et al. (2025).

Test: soluble fraction after stress (log2 fold change); higher = more stays soluble; pooled small domains, quantitative proteomics
Conditions: stress: pH 4
In short: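 After pH 4 stress, pooled custom libraries of small protein domains were quantified with high-throughput quantitative proteomics. Aggregation propensity is taken from the fold change in each domain's soluble amount following the acid stress. The scale is log2, where higher values mean more stayed soluble.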

| Sequence | soluble fraction (log2) |
| --- | --- |
| HMQNYTTIIGVIELRLNDISYDNVRKRYHIGRSGITLIMDRYRDSGLSLEDLKQMTPEKVVDLFYPR | 0.0145 |
| HMLQVRRILQLLADGYSKRQISQQTAVSRNTIDSYEDRFHLTGKSYQELLSMEDGELSGIVYP | 0.321 |
| HMELSPVDLGERLKIARETANFTQDAAAKAVGIARTTLVSIEKGQRTARLDEIQALSRFYGVSANALLR | 0.0374 |
| HMNKIDVVEVDMSKPYEDMTVTELQNVILGKLASNGPVTDQMKKDVAENIYHDSLVNWAKSF | -0.303 |
| HMPYSAAVTFLDDAKQPMVNYNYRLIAENGIEVSGITDEFGKTQPIQTDQREKVDLYIADLPN | -0.37 |
| HMIHKTDAINLGQRLLKSSLKEFDVSLKDIPNKTLMYILSEYKFNSLDDLYREIGLGNVIPKLVALRMAP | -0.436 |
| HMNVKQALLELMQRKPELTGSAIARAIGYSPAVISQYLKDGYPGDVVKLTTLIGDFIRRIDEKERS | -0.48 |
| HMSDKTSLTDDDKALINSMLPDYDKYPSVAKLQAVEIAKSSSKMATLLMLDERYNETVSEALE | -1.14 |
| HMVQYVDFVKRMIEELPWWHRRMLELKYLDGLTYEEIADELQVPVGTVKGTLHRAKELFQEILKNN | -1.71 |
| HMTDITSAITRLNKYNKSGTPLTIDSVTPEALQTLQAKVSSAFEIGAVNQQTYDDVTKDIATLQQYLSSA | -0.102 |
| HMLEIQENFQNILKRMELSLSPLERRVLALYLSGYERSEIPEKTGIPLKTFDNALHRVRNKMK | -0.711 |
| HMNSKKETLLSYLYNHSTWSSRNDLSNFLNVSTRQVTNYINEINKNETIVLSSNKGYKINPKFIGKN | 0.22 |
| HMEEDGAPLESREVLLDQAISQGKGTQWTIATETKLEDHIVSGAYSTDGKVTLAVFSPLGDGKYEFSSSVN | -0.172 |
| HMAPQSAAAILRYLSSGAIRGVGPATAQRIVERFGTDSLEIIQNRPKELAAINGISINKALSISEEYAKQY | -0.0357 |
| HMAAELQALSVRELEVLDQLAGGASNREIAQRLYISENTVRNHVHSILTKLKLQNRTQLVGMT | -0.705 |
| HMRDLTARQQQILALIRQHIADTGFPPTRAEIAAQLGFRSPNAAEEHLKALARKGVIELASGASRGIRLK | 0.283 |
| HMTKEGVNISITADGVQLSTESPNRVSIFNVNGTKVWEGIAPANVSLQKGVYILQTANGNTKFV | -0.407 |
| HMDDPYAGLRQRAYLFLRERDGAVPEEELIEHVFGSSGNPALWRPLLRQVLGADDRLDLRADGYWALRG | -0.839 |
| HMEKAYVWTDTRTFDVQNYIGKKKSEVKNDQYGFEFLGEGDYVIDQLPRVGEQIEEGQKVKIMLGNQQEI | 0.117 |
| HMEHQLLHMEKTIFEEIADDYPQLNHTKIRNVLAAFLFTNDDVFKRIADLSGGERGRVSLAKLMLSDA | -0.816 |
| HMIHEQSLHKIRNFIGSLPESLRTAFTLREQDGLSYEEIGKITNTPIGTVRSRIYRARESILDHINQE | -0.2 |
| HMVETVQVVGAGQDIMPGSRINYSSLHYITVPRSYFHEDMFAKNNLVVGRIARAYVAKGEPLLAASLMPK | 0.17 |
| HMADVPSTIFEAYRILGLNPEAPPVAVKKVVDALRMSWHPDHARSEPDRRHREERIKQINAAWDLLKGV | -0.128 |
| HMRAGEAVTGQVIGVKEDEIILSIAGSKSEGIITRSEFTNEPNVDLTTKVSVGDELEVKVLKVNDGEGMAS | -0.244 |
| HMQLPTPEDLKKRRNELGLTQSDLAKRAGVSQPLIARIESGDVDPRLSTVRKILDAFEEVEKEQQ | 0.0627 |
| HMEDIVDLVVEPEAAGRRLDAWLASRIERLSRSRIKALIESGHVAIGGATIVEAKKPVNSGDVVQLSVPEG | -0.121 |
| HMLFSEKLKQAMQDLHLNQIQVVGLTGKSKGSISQYISGKQVPSEATQRDIAISLGLEENYFSKK | 0.216 |
| HMTGSTSVAQVSTPSGSLNLRAYASTSARVLLQIPEYAFVTVYNRGATWSYVSYNGVSGYVMSVYLSFGG | -0.846 |

| Sequence | soluble fraction (log2) |
| --- | --- |
| HMEQISVPIFTNDELVTFARSYSGELGYKIDDMAVLALYNRISNIQRLDQATTLTEVKDIVDEAVAKSE | -0.63 |
| HMAQWGFNGSEAGDLSFQQGDVIEVVEKVKDDWWRGRVLGSTEIGLFPS | -1.64 |
| HMKLPNGYGGIAKLSGKRRNPWRVRVTKGWSVDEQTGKAKQLFSTLGYYPTRKDALAALSAYNQNP | 0.22 |
| HMASIEPLKTSIRIIWYINGEKDSETLLNTPPTAANKANAQKIADMVEQQIQMGIFNRDAVFPSSPKRQ | -0.559 |
| HMSQQMSYSDFVKAVSARQIREAQIQGDKIYATDSTGNRLTIIRLDNDQRLVDDMINNDVNIIGLEE | -0.534 |
| HMIQTKNVTFTINEKTKIANIPLKSLKILSQEDNRITLSYEKNSLKIDEIISYFSDKNINILDITTD | -1.05 |
| HMQSLSDQVFFYLKERIINNEMVPGSIISIEKLTSEFGISNTPVREAIVRLAGLDLVTIHRNKNITVS | -0.707 |
| HMSEYNPGIYRVTDPALNIRTGPGVEYPVVGVIKDQGSYTITEIRNKSWGRLLSGAGSTAIKHIVFT | -0.173 |
| HMIHTYVETRKVGNNDGLIRVDNKYYRVPQHLVGMKVQIQIDEATISVLQGGVMVATLDKTADVFNPQA | -1.74 |
| HMVTYELTEDEKFIVSLLEKENSQPIGALKDKSALSGKKWDAAMKGLAKHGLTKVVVDGDNKLVVL | -0.184 |
| HMSPRQVTAVRSGSPMPVLPGEDWRLYDASGALVARGSGAAPIPKSTGLLRLNSEGLDGLADRWIWVL | -0.154 |
| HMADTSPEGVQKLIKAFEQFGVSKDDIEGFIQRRVDAITPANVVSLRKIFTSLRDGMSSAKDWFKGA | -0.325 |
| HMLLTDGLERRIDGDKNLHIRISLPMLVKGQIKLAKSGNNESTVKGIFKIESYPGSHPRDVVTEIIEG | -0.0816 |
| HMQPLRQGDFVTSEVVKVQDGTAVLRTAQGTLLSASLTGNLGLLPGDRVETVVVEASPGRFVLRVLDIIR | -0.266 |
| HMRRNLSGEDTIVNRMAQWQYTQEQKNELHKMMDAGMPQEDILSVFYPEIKAEEMHRFLLAFQTAHNSG | -0.0487 |
| HMTMVKYRYLTDGELKEFEEEFKHFLIANGLHSEEWERLNNEDSNKAIEVVALFSNLILDKV | -1.06 |
| HMAENPAYTKGVVNRLYKIRATPYYSYSYNVDQKTYEGRGKQYGEYENLHIGDTITVYYQRSNPSNSEA | -0.112 |
| HMEFEYTVVVPETRGKTIGEAGRILLDLELKYTSESMNIREDSKVIDQFPSPGTEVSKGSIIDLYLDE | -1.91 |
| HMRPTAWDQISDWLDRHGSIANADVVRIAGLDTLKASKLLTTWREQGLLEPLPGRGKRNMAYVRAI | 0.12 |
| HMSLSQLGLTPRQTDVLALLLKGQPNKLIARELGLSVETVKDHVAAVLRALNVSSRTQAVIAVSQMLQ | -0.533 |
| HMLSAQEIPVEDIATRDFVLAEDVVSAKKVLLLPKGVDLSWFGSAKKRLVQRLKSEGVTHIRVFA | 0.008 |
| HMDGEITLYKVVGYIKASDFDDKKNGFVIADDYITKRQAEDTMYEWKRKKTYPYLEIKEYKGKDPYK | -0.0464 |
| HMVEVPYSEFLKELDAGNVKDVYVSNGESQIQFTKKDQKQWNLSYKTGPIPGDDLVKRLQNADVENFT | -0.282 |
| HMKEGTIPPVVNRTLSDAEFVLKSYGYELGRVSEQHSDMPKDIVIKQSPEAGTVADPGTRVDVVVSIGKA | 0.0175 |
| HMGLKQADFEELASRIFTVLEEKSMTPAEIVRKLNLEPDRISIVIQYLLDEGKLNIKDGFINNSA | -0.773 |
| HMHRNLSFEEEKEFLSAYTKQAEAGQIVDLNEMKAAYIEKVGHSIGGSQIYRMLERHGWRKVM | -0.468 |
| HMSNYYNILGVNKSSTQDEIKKAFRKKAVEHHPDKGGNEATFKKINEAYNTLSDNNKRHMYDMQQSG | 0.267 |
